These results are taken from patent publication US20250388669A1 (published 2025).

One experiment concerns the target PD-1 (binding assay) (UniProt Q15116 25-167, limits assumed). The experiment can be described thus: FCM or ELISA, graded. (An ELISA detects its analyte on a solid surface through an enzyme-linked reagent.)
A further experiment concerns the target CD137 (binding assay) (UniProt Q07011 24-186, limits assumed). The experiment can be described thus: FCM or ELISA, graded.
In another experiment the target is T1, PD-L1 (human, UniProt Q9NZQ7 19-238, limits assumed).
T1 construct: The reporter assay used Raji cells expressing human PD-L1
The experiment is described as follows: PD-L1 binding (FIG. 14A; method not specified); reference antibody.

T1 sequence (Q9NZQ7 19-238 limits assumed): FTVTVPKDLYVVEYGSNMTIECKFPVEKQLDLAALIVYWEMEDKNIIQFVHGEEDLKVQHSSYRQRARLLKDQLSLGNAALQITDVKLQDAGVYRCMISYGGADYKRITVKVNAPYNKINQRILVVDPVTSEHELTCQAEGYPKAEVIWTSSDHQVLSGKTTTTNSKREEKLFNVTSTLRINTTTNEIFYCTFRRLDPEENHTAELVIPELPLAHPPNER
Chain of PD-1 (binding assay) (Q15116 25-167 limits assumed): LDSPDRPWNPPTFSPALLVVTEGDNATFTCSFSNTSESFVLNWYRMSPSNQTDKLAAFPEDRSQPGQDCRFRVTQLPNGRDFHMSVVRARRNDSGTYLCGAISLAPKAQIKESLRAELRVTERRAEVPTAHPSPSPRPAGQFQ

B1: Ly2396 (bispecific antibody, human IgG1, kappa)
heavy 1: QVTLKESGPALVKPTQTLTLTCTFSGFSLSTSGTCVSWIRQPPGKALEWLATICWEDSKGYNPSLKSRLTISKDTSKNQAVLTMTNMDPVDTATYYCARREDSGYFWFPYWGQGTLVTVSSASTKGPSVFPLAPSSKSTSGGTAALGCLVKDYFPEPVTVSWNSGALTSGVHTFPAVLQSSGLYSLSSVVTVPSSSLGTQTYICNVNHKPSNTKVDKKVEPKSCDKTHTCPPCPAPEAAGPSVFLFPPKPKDTLMISRTPEVTCVVVDVSHEDPEVKFNWYVDGVEVHNAKTKPREEQYNSTYRVVSVLTVLHQDWLNGKEYKCKVSNKALPAPIEKTISKAKGQPREPQVYTLPPSREEMTKNQVSLWCLVKGFYPSDIAVEWESNGQPENNYKTTPPVLDSDGSFFLYSKLTVDKSRWQQGNVFSCSVMHEALHNHYTQKSLSLSPGGGGGSGGGGSGGGGSGGGGSQVQLVQSGAEVKKPGASVKVSCKASGYTFAGFEMHWVRQAPGQGLEWMGAIDPKTGGTDYNQKFKDRVTMTRDTSISTAYMELSRLRSDDTAVYYCARDLGYFDVWGQGTLVTVSS
heavy 2: QVTLKESGPALVKPTQTLTLTCTFSGFSLSTSGTCVSWIRQPPGKALEWLATICWEDSKGYNPSLKSRLTISKDTSKNQAVLTMTNMDPVDTATYYCARREDSGYFWFPYWGQGTLVTVSSASTKGPSVFPLAPSSKSTSGGTAALGCLVKDYFPEPVTVSWNSGALTSGVHTFPAVLQSSGLYSLSSVVTVPSSSLGTQTYICNVNHKPSNTKVDKKVEPKSCDKTHTCPPCPAPEAAGPSVFLFPPKPKDTLMISRTPEVTCVVVDVSHEDPEVKFNWYVDGVEVHNAKTKPREEQYNSTYRVVSVLTVLHQDWLNGKEYKCKVSNKALPAPIEKTISKAKGQPREPQVYTLPPSREEMTKNQVSLSCAVKGFYPSDIAVEWESNGQPENNYKTTPPVLDSDGSFFLVSKLTVDKSRWQQGNVFSCSVMHEALHNRFTQKSLSLSPGGGGGSGGGGSGGGGSGGGGSDIQMTQSPSSLSASVGDRVTITCRASQDIRSNLNWYQQKPGGAVKLLIYYTSRLHSGVPSRFSGSGSGTDYTLTISSLQPEDFATYFCQQSEKLPRTFGGGTKVEIR
light: NIQMTQSPSSLSASVGDRVTITCKAGQNVNNYLAWYQQKPGKAPKVLIFNANSLQTGVPSRFSGSGSGTDFTLTISSLQPEDFATYYCQQYNSWPTFGGGTKVEIKRTVAAPSVFIFPPSDEQLKSGTASVVCLLNNFYPREAKVQWKVDNALQSGNSQESVTEQDSKDSTYSLSSTLTLSKADYEKHKVYACEVTHQGLSSPVTKSFNRGEC
notes: PD-1 Fabs (Ly516) x terminal CD137 Fv
On to B1, for which the binding result with PD-1 (binding assay) and with CD137 (binding assay) was “binds” throughout.

B2: Ly076 (antibody, V domains shown)
VH: QVQLVQSGAEVKKPGASVKVSCKASGYTFTDFWMSWVRQAPGQGLEWMGQIYPNTGTTHSNEKFKGRVTMTRDTSTSTVYMELSSLRSEDTAVYYCARSYHISTTPNWFAYWGQGTLVTVSS
VL: DIQMTQSPSSLSASVGDRVTITCKASQNVYKKLEWYQQKPGKVPKVLIYHTNILQTGVPSRFSGSGSGTDYTLTISSLQPEDVATYYCYQWNSGPTFGGGTKVEIK
notes: Parent mAb; also called parent anti-PD-L1 antibody
On to B2, for which the binding result with PD-L1 is “binds”.
